Measurements published in article PMC6517398, “Selection of a novel DNA aptamer against OFA/iLRP for targeted delivery of doxorubicin to AML cells”.

Biological target: T1, OFA/iLRP extracellular epitope peptide (UniProt P08865)
T1 chain: NQIQAAFREPR
Test: flow cytometry of coated beads; PBS (pH not stated), 200 uL, 30 min, room temperature; 2x10^5 coated beads with 20-40 pmol FAM-ssDNA (cells: 40-60 pmol); washed once or twice with PBS
Details: label: FAM (5' in selection primer); single strand, 59 nt

B1: AB3 (ssDNA)
DNA: TGCGTGTGTAGTGTGTCTGTTGTTTGTATTGTTGTCTATCCTCTTAGGGATTTGGGCGG
Question: Which Kd does the source give for B1 here?
Answer: The Kd was 101 nM.
